For five molecules, Kd and koff results are on record in publication PMC8324831 (2021).

For orientation: Kd means a measure of binding affinity in units of concentration. By koff is commonly meant a measure of how fast the partners let go of each other. Higher therefore signals a short-lived complex.

Test [1] concerns the target T1, SARS-CoV-2 S-RBD with Avi-tag and deca-His tag (residues 330-531) (SARS-CoV-2, UniProt P0DTC2 330-531). The test can be described thus: BLI. Background: Biolayer interferometry detects binding as a change in optical thickness at a sensor tip.
For test [2], the target named is T1, SARS-CoV-2 S-RBD with Avi-tag and …. The test can be described thus: BLI. The source holds these as a separate data set.

B1: sybody MR4 (VHH)
VHH: QVQLVESGGGLVQAGGSLRLSCAASGFPMYAWEMAWYRQAPGKEREWVAAIRSMGVHTHYSDSVKGRFTISRDNAKNTVYLQMNSLKPEDTAVYYCNVKDFGGHQAYYDYWGQGTQVTVS
B1: the dissociation constant Kd in test [1] was 23.3 nM. For the same molecule, the koff in test [2] was 0.0064 s⁻¹.

B2: sybody MR17 (VHH)
VHH: QVQLVESGGGLVQAGGSLRLSCAASGFPVEVWRMEWYRQAPGKEREGVAAIESYGHGTRYADSVKGRFTISRDNAKNTVYLQMNSLKPEDTAVYYCNVKDDGQLAYHYDYWGQGTQVTVS
modifications: biotin by an amine-reactive crosslinker (only where immobilised on the SA sensor)
In test [2], B2 gave a koff of 0.0097 s⁻¹.

B3: sybody LR1 (VHH)
VHH: QVQLVESGGGSVQAGGSLRLSCAASGSISSITYLGWFRQAPGKEREGVAALITDSGRTYYADSVKGRFTVSLDNAKNTVYLQMNSLKPEDTALYYCAAAEWGYEWPLYYASSWYWGQGTQVTVS
B3 registered a Kd in test [1] of 47.5 nM. In test [2], this molecule registered an off-rate (koff) of 0.0096 s⁻¹.

B4: sybody LR5 (VHH)
VHH: QVQLVESGGGSVQAGGSLRLSCAASGSISSITYLGWFRQAPGKEREGVAALITSNGRTYYADSVKGRFTVSLDNAKNTVYLQMNSLKPEDTALYYCAAATWGYHWPLGAWDYWYWGQGTQVTVS
In test [1], B4 came in with a dissociation constant Kd of 22.8 nM. The same molecule showed a koff in test [2] of 0.0032 s⁻¹.

B5: sybody SR4 (VHH)
VHH: QVQLVESGGGLVQAGGSLRLSCAASGFPVYSWNMWWYRQAPGKEREWVAAIESHGDSTRYADSVKGRFTISRDNAKNTVYLQMNSLKPEDTAVYYCYVWVGHTYYGQGTQVTVS
modifications: biotin by an amine-reactive crosslinker (only where immobilised on the SA sensor)
Take B5: the equilibrium dissociation constant (Kd) in test [1] was 14.5 nM. The molecule further registered an off-rate constant (koff) in test [2] of 0.0014 s⁻¹.
